Source: patent publication US20230374088A1 (GENERAL HOSPITAL, published 2023)
One block for each binder: values may come before it.

B2: GST-Kif7-CC (460-600aa) (other)
chain: PDSGIESASVEDQAAQGAGGRKEDEGAQQLLTLQNQVARLEEENRDFLAALEDAMEQYKLQSDRLREQQEEMVELRLRLELVRPGWGGPRLLNGLPPGSFVPRPHTAPLGGAHAHVLGMVPPACLPGDEVGSEQRGEQVTN
notes: held on the BLI sensor through the GST tag; also called Kif7 coiled-coil domain; coiled-coil dimerization domain fragment of Kif7; not shown: N-terminal GST tag (HRV protease cleavable, modified pGEX vector)

Legend:
GST-Kif7-CC (460-600aa) = molecular target: B2; assay: BLI with Gli2-ZF truncation, Hill fit
From the text: (§1) Data represent mean and standard deviation from three independent repeats. The plots of binding response versus Gli2-ZF concentration were fit to a Hill equation to determine equilibrium dissociation constants (Kd).
(§2) Third, we performed a series of site-directed mutagenesis experiments to further confirm the structural model and map the residues of Gli2-ZF and Kif7-CC required for complex formation. We created five Gli2-ZF truncations containing different groups of zinc-fingers (FIG. 3C; FIGS. 10A & 10B). […] This is similar to the Gli-DNA interaction where ZF2 and ZF3 are critical for making contacts with the phosphate backbone of DNA (Pavletich and Pabo, Science, 261, 1701-1707, 1993).
(§3) BLI experiments were performed in an Octet Red 96 instrument (ForteBio). To quantify Kif7-Gli2 binding, Experiments were performed in an assay buffer containing 40 mM TRIS pH7.3, 40 mM KCl, 40 μM ATP 1 mM MgCl₂, 0.12% tween and 0.5 mM TCEP. In the simplest assay, dimeric GST-Kif7-CC at a concentration of 120 nM is immobilized on an anti-GST biosensor chip. Unbound Kif7 is washed away with buffer, and the chips are then dipped into buffer with a range of Gli2-ZF concentrations from 0-1 μM to allow for association of the two proteins. After 300 seconds, they are then moved back into a well with just buffer to allow dissociation for 400 seconds. […]

Gli2-ZF-1-4 [1] = molecular target: T1, Gli2-ZF-1-4 (human, UniProt P10070 418-562, limits assumed); assay: BLI with Gli2-ZF truncation, Hill fit
T1 construct: domain: zinc-fingers 1-4
From the text: as §1, §2, §3

Gli2-ZF-1-4 [2] = molecular target: T1, Gli2-ZF-1-4; assay: BLI with Gli2-ZF truncation, Hill fit (legend of FIG. 10C); legend of FIG. 10C; Hill fit, three repeats
Method: as §1
(§4) BLI experiments were performed in an Octet Red 96 instrument (ForteBio). To quantify Kif7-Gli2 binding, Experiments were performed in an assay buffer containing 40 mM TRIS pH7.3, 40 mM KCl, 40 μM ATP 1 mM MgCl₂, 0.12% tween and 0.5 mM TCEP. In the simplest assay, dimeric GST-Kif7-CC at a concentration of 120 nM is immobilized on an anti-GST biosensor chip. Unbound Kif7 is washed away with buffer, and the chips are then dipped into buffer with a range of Gli2-ZF concentrations from 0-1 μM to allow for association of the two proteins. After 300 seconds, they are then moved back into a well with just buffer to allow dissociation for 400 seconds. The equilibrium response of each sensor from three independent repeats at each Gli2 concentration were normalized and plotted against Gli2 concentration and fitted with a Hill function to obtain a Kₜ. […] The assays were also performed with HIS-tagged Kif7-DM and the Kif7-Kif27 chimeric proteins, requiring the use of an anti-penta-HIS biosensor chip, and referencing sensors to account for non-specific binding of Gli2 to the HIS sensor. […]

[3] = molecular target: T2, Gli2-ZF (418-604aa; zinc finger domain of Gli2) (human, UniProt P10070 418-604); assay: BLI; GST-Kif7-CC on anti-GST sensor, Gli2-ZF as analyte, Hill fit of equilibrium response
T2 construct: Expressed with an HRV-cleavable N-terminal 6xHis tag, cleaved 'if needed'; also called Gli-ZF
T2 sequence (looked up): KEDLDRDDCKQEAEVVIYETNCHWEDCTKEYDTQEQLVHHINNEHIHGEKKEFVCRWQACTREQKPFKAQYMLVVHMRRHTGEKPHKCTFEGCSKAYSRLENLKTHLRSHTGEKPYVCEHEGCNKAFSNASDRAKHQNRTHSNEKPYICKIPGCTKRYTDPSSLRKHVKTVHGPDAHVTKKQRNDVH
From the text: Data represent mean and standard deviation from three independent repeats. The plots of binding response versus Gli2-ZF concentration were fit to a Hill equation to determine equilibrium dissociation constants (Kd). […] See also FIGS. 8A & 8B.
Single molecule fluorescence intensity and photobleaching analysis of the GFP-tagged proteins indicate that the GST-Kif7-CC is an obligate dimer and Gli2-ZF is a monomer (FIGS. 8C & 8D). […] We also verified that Kif7-CC-GFP and Gli2-ZF-GFP bind with similar affinity as the untagged proteins (FIG. 8E). Due to higher stability and yield of the Kif7-CC compared to the Kif7-SCC protein, we used the Kif7-CC for further biochemical analysis.
BLI experiments were performed in an Octet Red 96 instrument (ForteBio). To quantify Kif7-Gli2 binding, Experiments were performed in an assay buffer containing 40 mM TRIS pH7.3, 40 mM KCl, 40 μM ATP 1 mM MgCl₂, 0.12% tween and 0.5 mM TCEP. In the simplest assay, dimeric GST-Kif7-CC at a concentration of 120 nM is immobilized on an anti-GST biosensor chip. Unbound Kif7 is washed away with buffer, and the chips are then dipped into buffer with a range of Gli2-ZF concentrations from 0-1 μM to allow for association of the two proteins. After 300 seconds, they are then moved back into a well with just buffer to allow dissociation for 400 seconds.

Gli2-ZF-GFP = molecular target: T3, Gli2-ZF-GFP (human, UniProt P10070 418-604); assay: BLI, Hill fit
T3 construct: HRV-cleavable N-terminal 6xHis tag in the vector; not shown: C-terminal GFP tag
T3 sequence (looked up): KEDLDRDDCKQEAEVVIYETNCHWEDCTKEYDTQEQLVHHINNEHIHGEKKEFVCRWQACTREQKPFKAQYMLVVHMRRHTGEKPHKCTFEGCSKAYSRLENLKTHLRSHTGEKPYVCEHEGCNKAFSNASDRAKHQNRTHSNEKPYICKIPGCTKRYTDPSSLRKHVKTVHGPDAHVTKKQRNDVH
Method: as §1, with “(Kd). […] GFP-tagged versions of proteins show a consistent increase in Kd that is within error range.” for “(Kd).”
as §4

[4] = molecular target: T2, Gli2-ZF (418-604aa; zinc finger domain …); assay: BLI, Hill fit
Method: as §1, with “(Kd). […] GFP-tagged versions of proteins show a consistent increase in Kd that is within error range.” for “(Kd).”
as §4

Kd (GST-Kif7-CC (460-600aa)): 160 nM
B1: Gli2 ZF1-3 (other, human, UniProt P10070 418-530, looked up)
chain: KEDLDRDDCKQEAEVVIYETNCHWEDCTKEYDTQEQLVHHINNEHIHGEKKEFVCRWQACTREQKPFKAQYMLVVHMRRHTGEKPHKCTFEGCSKAYSRLENLKTHLRSHTGE
notes: domain: zinc-fingers 1-3

Binder: B2
Kd (Gli2-ZF-1-4 [1]): 101 nM | Kd (Gli2-ZF-1-4 [2]): 103 nM | Kd [3]: 48 nM

Kd (Gli2-ZF-GFP): 57 nM | Kd [4]: 65 nM
B3: GST-Kif7-CC-GFP (other)
chain: PDSGIESASVEDQAAQGAGGRKEDEGAQQLLTLQNQVARLEEENRDFLAALEDAMEQYKLQSDRLREQQEEMVELRLRLELVRPGWGGPRLLNGLPPGSFVPRPHTAPLGGAHAHVLGMVPPACLPGDEVGSEQRGEQVTN
notes: also called GST-tagged Kif7-CC-GFP; not shown: N-terminal GST tag; GFP tag, C-terminal by the name
